Test results from US20240209062A1 (INVETX, published 2024).

Target: T1, feline FcRn (soluble portion of large subunit p51 isoform X1 with C-terminal 6xHis-tag, co-expressed with … (feline, UniProt Q5MGS7 21-118))
T1 construct: Heterodimer made by co-expression in CHO cells, purified on HisTrap FF; also called FcRn complex
Assay: SPR, Biacore T200, IgG captured on Protein L chip, feline FcRn flowed over, pH 5.9, 1:1 fit
Description: The feline FcRn binding experiments at pH 5.9 were completed on a BIACORE™ T200 instrument. A Series S Protein L Sensor chip (Cytiva, Cat. No. BR29205137) was used to capture the antibody variants via the kappa (κ) light chain. The feline variants were captured onto the protein L chip at a flow rate of 10 μL/min for 60 seconds. 1×PBX-P+(Cytiva Cat 28995084) was adjusted to pH 5.9 for the running buffer. The feline FcRn was flowed over the sensor chip at 30 μL/min for 120 seconds contact time and 600 seconds dissociation time. Regeneration of the flow cells was completed by flowing over 10 mM glycine, pH 1.7 at 30 μL/min for 30 seconds. The data were evaluated by the BIACORE™T200 Evaluation software v3.2.1 by fitting to a 1:1 kinetic interaction model.

T1 sequence (chain, as listed by the source limits assumed, chain 1 of 2): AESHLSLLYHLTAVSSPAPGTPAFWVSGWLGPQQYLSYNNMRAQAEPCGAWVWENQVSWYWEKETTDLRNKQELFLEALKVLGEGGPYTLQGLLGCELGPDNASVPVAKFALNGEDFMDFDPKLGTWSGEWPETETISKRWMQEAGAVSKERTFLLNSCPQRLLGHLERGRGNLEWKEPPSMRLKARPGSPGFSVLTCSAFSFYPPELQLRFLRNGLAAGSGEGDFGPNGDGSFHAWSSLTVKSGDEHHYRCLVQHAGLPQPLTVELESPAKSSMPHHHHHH
T1 sequence (Q5MGS7 other isoform, or with tags, fused parts or gaps limits assumed, chain 2 of 2): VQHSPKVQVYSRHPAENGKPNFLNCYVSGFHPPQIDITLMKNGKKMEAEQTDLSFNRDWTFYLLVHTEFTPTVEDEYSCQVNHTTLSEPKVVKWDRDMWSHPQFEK

Binder	Kd [nM]	koff [s⁻¹]	kon [M⁻¹ s⁻¹]
IgG with wild-type feline IgG1a Fc (antibody, Constant domain carries the MALA mutations (M234A, L244A as printed); variable domains from WO 2023/97275; also called Wild-type Fc; wild type feline Fc) heavy: DVQLVESGGDLVKPGGSLRLTCVASGLSLTSDSMSWVRQAPGKGLQWVSTLWSNRGTYYTDSVKGRFTISKDNAENTLYLQMNNLKTEDTATYYCASIYYYEADYLHWYFDFWGQGALVTVSSASTTAPSVFPLAPSCGTTSGATVALACLVLGYFPEPVTVSWNSGALTSGVHTFPAVLQASGLYSLSSMVTVPSSRWLSDTFTCNVAHPPSNTKVDKTVRKTDHPPGPKPCDCPKCPPPEAAGGPSIFIFPPKPKDTLSISRTPEVTCLVVDLGPDDSDVQITWFVDNTQVYTAKTSPREEQFNSTYRVVSVLPILHQDWLKGKEFKCKVNSKSLPSPIERTISKAKGQPHEPQVYVLPPAQEELSRNKVSVTCLIKSFHPPDIAVEWEITGQPEPENNYRTTPPQLDSDGTYFVYSKLSVDRSHWQRGNTYTCSVSHEALHSHHTQKSLTQSPG light: EIQMTQSPTSLSASVGDRVTITCRASEGIANNLSWYQQTPGKAPKLLIYATSNLHSGVPSRFSGSGSGTDFTLTISSLQPEDFATYYCQQGFKWPLTFGGGTKLEITRSDAQPSVFLFQPSLDELHTGSASIVCILNDFYPKEVNVKWKVDGVVQNKGIQESTTEQNSKDSTYSLSSTLTMSSTEYQSHEKFSCEVTHKSLASTLVKSFNRSECQRE	417	0.273	709000
IgG with feline IgG1a Fc variant S252M, L309D (antibody, IgG1a constant domain with MALA mutations (M234A, L244A as printed); variable domains from WO 2023/97275) heavy: DVQLVESGGDLVKPGGSLRLTCVASGLSLTSDSMSWVRQAPGKGLQWVSTLWSNRGTYYTDSVKGRFTISKDNAENTLYLQMNNLKTEDTATYYCASIYYYEADYLHWYFDFWGQGALVTVSSASTTAPSVFPLAPSCGTTSGATVALACLVLGYFPEPVTVSWNSGALTSGVHTFPAVLQASGLYSLSSMVTVPSSRWLSDTFTCNVAHPPSNTKVDKTVRKTDHPPGPKPCDCPKCPPPEAAGGPSIFIFPPKPKDTLMISRTPEVTCLVVDLGPDDSDVQITWFVDNTQVYTAKTSPREEQFNSTYRVVSVLPIDHQDWLKGKEFKCKVNSKSLPSPIERTISKAKGQPHEPQVYVLPPAQEELSRNKVSVTCLIKSFHPPDIAVEWEITGQPEPENNYRTTPPQLDSDGTYFVYSKLSVDRSHWQRGNTYTCSVSHEALHSHHTQKSLTQSPG light: EIQMTQSPTSLSASVGDRVTITCRASEGIANNLSWYQQTPGKAPKLLIYATSNLHSGVPSRFSGSGSGTDFTLTISSLQPEDFATYYCQQGFKWPLTFGGGTKLEITRSDAQPSVFLFQPSLDELHTGSASIVCILNDFYPKEVNVKWKVDGVVQNKGIQESTTEQNSKDSTYSLSSTLTMSSTEYQSHEKFSCEVTHKSLASTLVKSFNRSECQRE	352	0.203	581000
IgG with feline IgG1a Fc variant S252M, R301L (antibody, IgG1a constant domain with MALA mutations (M234A, L244A as printed); variable domains from WO 2023/97275) heavy: DVQLVESGGDLVKPGGSLRLTCVASGLSLTSDSMSWVRQAPGKGLQWVSTLWSNRGTYYTDSVKGRFTISKDNAENTLYLQMNNLKTEDTATYYCASIYYYEADYLHWYFDFWGQGALVTVSSASTTAPSVFPLAPSCGTTSGATVALACLVLGYFPEPVTVSWNSGALTSGVHTFPAVLQASGLYSLSSMVTVPSSRWLSDTFTCNVAHPPSNTKVDKTVRKTDHPPGPKPCDCPKCPPPEAAGGPSIFIFPPKPKDTLMISRTPEVTCLVVDLGPDDSDVQITWFVDNTQVYTAKTSPREEQFNSTYLVVSVLPILHQDWLKGKEFKCKVNSKSLPSPIERTISKAKGQPHEPQVYVLPPAQEELSRNKVSVTCLIKSFHPPDIAVEWEITGQPEPENNYRTTPPQLDSDGTYFVYSKLSVDRSHWQRGNTYTCSVSHEALHSHHTQKSLTQSPG light: EIQMTQSPTSLSASVGDRVTITCRASEGIANNLSWYQQTPGKAPKLLIYATSNLHSGVPSRFSGSGSGTDFTLTISSLQPEDFATYYCQQGFKWPLTFGGGTKLEITRSDAQPSVFLFQPSLDELHTGSASIVCILNDFYPKEVNVKWKVDGVVQNKGIQESTTEQNSKDSTYSLSSTLTMSSTEYQSHEKFSCEVTHKSLASTLVKSFNRSECQRE	280	0.332	1.2e+06
IgG with feline IgG1a Fc variant S252M (antibody, IgG1a constant domain with MALA mutations (M234A, L244A as printed); variable domains from WO 2023/97275) heavy: DVQLVESGGDLVKPGGSLRLTCVASGLSLTSDSMSWVRQAPGKGLQWVSTLWSNRGTYYTDSVKGRFTISKDNAENTLYLQMNNLKTEDTATYYCASIYYYEADYLHWYFDFWGQGALVTVSSASTTAPSVFPLAPSCGTTSGATVALACLVLGYFPEPVTVSWNSGALTSGVHTFPAVLQASGLYSLSSMVTVPSSRWLSDTFTCNVAHPPSNTKVDKTVRKTDHPPGPKPCDCPKCPPPEAAGGPSIFIFPPKPKDTLMISRTPEVTCLVVDLGPDDSDVQITWFVDNTQVYTAKTSPREEQFNSTYRVVSVLPILHQDWLKGKEFKCKVNSKSLPSPIERTISKAKGQPHEPQVYVLPPAQEELSRNKVSVTCLIKSFHPPDIAVEWEITGQPEPENNYRTTPPQLDSDGTYFVYSKLSVDRSHWQRGNTYTCSVSHEALHSHHTQKSLTQSPG light: EIQMTQSPTSLSASVGDRVTITCRASEGIANNLSWYQQTPGKAPKLLIYATSNLHSGVPSRFSGSGSGTDFTLTISSLQPEDFATYYCQQGFKWPLTFGGGTKLEITRSDAQPSVFLFQPSLDELHTGSASIVCILNDFYPKEVNVKWKVDGVVQNKGIQESTTEQNSKDSTYSLSSTLTMSSTEYQSHEKFSCEVTHKSLASTLVKSFNRSECQRE	279	0.192	690000

Binders with a lower Kd, results first:

Kd [nM]	koff [s⁻¹]	kon [M⁻¹ s⁻¹]	Binder
129	0.124	958000	IgG with feline IgG1a Fc variant S252M, L309V (antibody, IgG1a constant domain with MALA mutations (M234A, L244A as printed); variable domains from WO 2023/97275) heavy: DVQLVESGGDLVKPGGSLRLTCVASGLSLTSDSMSWVRQAPGKGLQWVSTLWSNRGTYYTDSVKGRFTISKDNAENTLYLQMNNLKTEDTATYYCASIYYYEADYLHWYFDFWGQGALVTVSSASTTAPSVFPLAPSCGTTSGATVALACLVLGYFPEPVTVSWNSGALTSGVHTFPAVLQASGLYSLSSMVTVPSSRWLSDTFTCNVAHPPSNTKVDKTVRKTDHPPGPKPCDCPKCPPPEAAGGPSIFIFPPKPKDTLMISRTPEVTCLVVDLGPDDSDVQITWFVDNTQVYTAKTSPREEQFNSTYRVVSVLPIVHQDWLKGKEFKCKVNSKSLPSPIERTISKAKGQPHEPQVYVLPPAQEELSRNKVSVTCLIKSFHPPDIAVEWEITGQPEPENNYRTTPPQLDSDGTYFVYSKLSVDRSHWQRGNTYTCSVSHEALHSHHTQKSLTQSPG light: EIQMTQSPTSLSASVGDRVTITCRASEGIANNLSWYQQTPGKAPKLLIYATSNLHSGVPSRFSGSGSGTDFTLTISSLQPEDFATYYCQQGFKWPLTFGGGTKLEITRSDAQPSVFLFQPSLDELHTGSASIVCILNDFYPKEVNVKWKVDGVVQNKGIQESTTEQNSKDSTYSLSSTLTMSSTEYQSHEKFSCEVTHKSLASTLVKSFNRSECQRE
216	0.187	869000	IgG with feline IgG1a Fc variant S252M, I377L (antibody, Printed '1377L' read as I377L; IgG1a constant domain with MALA mutations (M234A, L244A as printed); variable domains from WO 2023/97275; also called S252M, 1377L) heavy: DVQLVESGGDLVKPGGSLRLTCVASGLSLTSDSMSWVRQAPGKGLQWVSTLWSNRGTYYTDSVKGRFTISKDNAENTLYLQMNNLKTEDTATYYCASIYYYEADYLHWYFDFWGQGALVTVSSASTTAPSVFPLAPSCGTTSGATVALACLVLGYFPEPVTVSWNSGALTSGVHTFPAVLQASGLYSLSSMVTVPSSRWLSDTFTCNVAHPPSNTKVDKTVRKTDHPPGPKPCDCPKCPPPEAAGGPSIFIFPPKPKDTLMISRTPEVTCLVVDLGPDDSDVQITWFVDNTQVYTAKTSPREEQFNSTYRVVSVLPILHQDWLKGKEFKCKVNSKSLPSPIERTISKAKGQPHEPQVYVLPPAQEELSRNKVSVTCLIKSFHPPDLAVEWEITGQPEPENNYRTTPPQLDSDGTYFVYSKLSVDRSHWQRGNTYTCSVSHEALHSHHTQKSLTQSPG light: EIQMTQSPTSLSASVGDRVTITCRASEGIANNLSWYQQTPGKAPKLLIYATSNLHSGVPSRFSGSGSGTDFTLTISSLQPEDFATYYCQQGFKWPLTFGGGTKLEITRSDAQPSVFLFQPSLDELHTGSASIVCILNDFYPKEVNVKWKVDGVVQNKGIQESTTEQNSKDSTYSLSSTLTMSSTEYQSHEKFSCEVTHKSLASTLVKSFNRSECQRE
202	0.175	862000	IgG with feline IgG1a Fc variant S252M, I377Y (antibody, Printed '1377Y' read as I377Y; IgG1a constant domain with MALA mutations (M234A, L244A as printed); variable domains from WO 2023/97275; also called S252M, 1377Y) heavy: DVQLVESGGDLVKPGGSLRLTCVASGLSLTSDSMSWVRQAPGKGLQWVSTLWSNRGTYYTDSVKGRFTISKDNAENTLYLQMNNLKTEDTATYYCASIYYYEADYLHWYFDFWGQGALVTVSSASTTAPSVFPLAPSCGTTSGATVALACLVLGYFPEPVTVSWNSGALTSGVHTFPAVLQASGLYSLSSMVTVPSSRWLSDTFTCNVAHPPSNTKVDKTVRKTDHPPGPKPCDCPKCPPPEAAGGPSIFIFPPKPKDTLMISRTPEVTCLVVDLGPDDSDVQITWFVDNTQVYTAKTSPREEQFNSTYRVVSVLPILHQDWLKGKEFKCKVNSKSLPSPIERTISKAKGQPHEPQVYVLPPAQEELSRNKVSVTCLIKSFHPPDYAVEWEITGQPEPENNYRTTPPQLDSDGTYFVYSKLSVDRSHWQRGNTYTCSVSHEALHSHHTQKSLTQSPG light: EIQMTQSPTSLSASVGDRVTITCRASEGIANNLSWYQQTPGKAPKLLIYATSNLHSGVPSRFSGSGSGTDFTLTISSLQPEDFATYYCQQGFKWPLTFGGGTKLEITRSDAQPSVFLFQPSLDELHTGSASIVCILNDFYPKEVNVKWKVDGVVQNKGIQESTTEQNSKDSTYSLSSTLTMSSTEYQSHEKFSCEVTHKSLASTLVKSFNRSECQRE
152	0.121	865000	IgG with feline IgG1a Fc variant S252M, Q311V (antibody, IgG1a constant domain with MALA mutations (M234A, L244A as printed); variable domains from WO 2023/97275) heavy: DVQLVESGGDLVKPGGSLRLTCVASGLSLTSDSMSWVRQAPGKGLQWVSTLWSNRGTYYTDSVKGRFTISKDNAENTLYLQMNNLKTEDTATYYCASIYYYEADYLHWYFDFWGQGALVTVSSASTTAPSVFPLAPSCGTTSGATVALACLVLGYFPEPVTVSWNSGALTSGVHTFPAVLQASGLYSLSSMVTVPSSRWLSDTFTCNVAHPPSNTKVDKTVRKTDHPPGPKPCDCPKCPPPEAAGGPSIFIFPPKPKDTLMISRTPEVTCLVVDLGPDDSDVQITWFVDNTQVYTAKTSPREEQFNSTYRVVSVLPILHVDWLKGKEFKCKVNSKSLPSPIERTISKAKGQPHEPQVYVLPPAQEELSRNKVSVTCLIKSFHPPDIAVEWEITGQPEPENNYRTTPPQLDSDGTYFVYSKLSVDRSHWQRGNTYTCSVSHEALHSHHTQKSLTQSPG light: EIQMTQSPTSLSASVGDRVTITCRASEGIANNLSWYQQTPGKAPKLLIYATSNLHSGVPSRFSGSGSGTDFTLTISSLQPEDFATYYCQQGFKWPLTFGGGTKLEITRSDAQPSVFLFQPSLDELHTGSASIVCILNDFYPKEVNVKWKVDGVVQNKGIQESTTEQNSKDSTYSLSSTLTMSSTEYQSHEKFSCEVTHKSLASTLVKSFNRSECQRE
